In PMC4114562:

Molecular target: rFKBP22 (a recombinant E. coli FKBP22) (Escherichia coli) (UniProt P0A9L3)
Test: cross-linking; glutaraldehyde-mediated chemical cross-linking of rFKBP22 (bound/unbound with rapamycin) at 30°–85°C, analysed by SDS-13.5% PAGE

rFKBP22 (a recombinant E. coli FKBP22) (from UniProt P0A9L3 1-206) (enzyme)
stoichiometry N: 2
